Laboratory results: patent US20120263644A1

Legend:
[1] = biological target: constitutively active LFA-1 expressed on Jurkat T-cell line J-β2.7/LFA-1Δ; assay: cell-based or functional assay
[2] = biological target: leukocyte function antigen-1 (LFA-1), composed of CD11a and CD18, on human white blood cells (human) (UniProt P20701); assay: cell-based or functional assay
leukocyte function antigen-1 (LFA-1), composed of CD11a and CD18, on human white blood cells (human), sequence (P20701 26-1170, chain 1 of 2): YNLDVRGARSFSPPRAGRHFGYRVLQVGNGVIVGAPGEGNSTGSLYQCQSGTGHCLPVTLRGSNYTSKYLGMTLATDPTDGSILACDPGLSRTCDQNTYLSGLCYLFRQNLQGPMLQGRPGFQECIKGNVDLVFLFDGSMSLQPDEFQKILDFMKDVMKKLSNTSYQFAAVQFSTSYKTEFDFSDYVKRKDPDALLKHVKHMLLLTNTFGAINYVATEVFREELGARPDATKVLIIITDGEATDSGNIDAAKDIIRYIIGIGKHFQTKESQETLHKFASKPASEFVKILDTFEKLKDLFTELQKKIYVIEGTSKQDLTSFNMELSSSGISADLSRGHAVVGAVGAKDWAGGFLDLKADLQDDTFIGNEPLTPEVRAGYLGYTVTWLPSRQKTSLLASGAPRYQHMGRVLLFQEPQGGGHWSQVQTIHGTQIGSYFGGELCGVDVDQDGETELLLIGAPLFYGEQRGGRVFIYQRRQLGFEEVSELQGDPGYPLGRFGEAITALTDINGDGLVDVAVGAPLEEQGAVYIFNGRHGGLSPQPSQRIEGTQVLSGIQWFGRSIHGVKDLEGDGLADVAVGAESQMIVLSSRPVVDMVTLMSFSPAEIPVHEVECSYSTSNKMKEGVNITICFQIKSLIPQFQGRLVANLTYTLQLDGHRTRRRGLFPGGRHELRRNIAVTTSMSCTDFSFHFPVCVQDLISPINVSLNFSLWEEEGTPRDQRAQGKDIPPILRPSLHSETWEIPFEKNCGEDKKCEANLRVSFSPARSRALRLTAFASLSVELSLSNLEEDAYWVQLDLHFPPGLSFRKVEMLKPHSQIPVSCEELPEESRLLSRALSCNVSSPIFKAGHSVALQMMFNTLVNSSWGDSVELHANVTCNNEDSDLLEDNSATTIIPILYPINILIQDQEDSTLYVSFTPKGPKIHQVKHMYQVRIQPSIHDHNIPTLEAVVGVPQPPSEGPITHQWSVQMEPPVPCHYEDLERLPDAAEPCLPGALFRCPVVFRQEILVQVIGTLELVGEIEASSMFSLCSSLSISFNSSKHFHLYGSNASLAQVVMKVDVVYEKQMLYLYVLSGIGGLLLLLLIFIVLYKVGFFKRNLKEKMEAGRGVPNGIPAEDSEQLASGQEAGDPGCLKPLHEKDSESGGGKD
leukocyte function antigen-1 (LFA-1), composed of CD11a and CD18, on human white blood cells (human), sequence (P05107 23-769, chain 2 of 2, further chain): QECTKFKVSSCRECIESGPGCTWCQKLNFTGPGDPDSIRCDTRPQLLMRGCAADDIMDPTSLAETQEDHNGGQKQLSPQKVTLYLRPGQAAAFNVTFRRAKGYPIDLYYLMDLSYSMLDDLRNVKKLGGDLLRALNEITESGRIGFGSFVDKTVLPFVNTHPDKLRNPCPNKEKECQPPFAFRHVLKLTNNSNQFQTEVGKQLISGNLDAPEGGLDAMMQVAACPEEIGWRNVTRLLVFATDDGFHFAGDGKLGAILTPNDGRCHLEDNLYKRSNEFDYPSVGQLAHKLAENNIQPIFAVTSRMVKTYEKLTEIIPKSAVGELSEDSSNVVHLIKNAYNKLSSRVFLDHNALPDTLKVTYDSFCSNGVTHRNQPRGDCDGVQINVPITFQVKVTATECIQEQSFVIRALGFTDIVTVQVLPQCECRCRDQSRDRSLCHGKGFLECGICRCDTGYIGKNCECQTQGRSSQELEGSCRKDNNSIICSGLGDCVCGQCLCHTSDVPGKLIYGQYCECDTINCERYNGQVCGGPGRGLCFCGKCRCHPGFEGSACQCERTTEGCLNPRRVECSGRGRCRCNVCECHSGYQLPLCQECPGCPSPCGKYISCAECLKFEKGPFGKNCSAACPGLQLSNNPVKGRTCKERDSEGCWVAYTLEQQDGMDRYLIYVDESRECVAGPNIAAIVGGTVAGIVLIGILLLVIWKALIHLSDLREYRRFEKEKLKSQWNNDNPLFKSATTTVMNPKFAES

B1: leukotoxin (LtxA) of Aggregatibacter actinomycetemcomitans strain NJ4500 (protein)
chain: MATTSLLNTKQQAAQFANSVADRAKENIDAAKEQLQKALDKLGKTGKKLTLYIKNYKKGNGLTALIKAAQKLGIEVYHEGKDGPALTNGILNTGKKLLGLTERGLTLFAPELDKWIQGNKHLSNSVGSTGNLTKAIDKVQSVLGTLQAFLNTAFSGMDLDALIKARQNGKNVTDVQLAKASLNLINELIGTISSITNNVDTFSKQLNKLGEALGQVKHFGSFGDKLKNLPKLGNLGKGLGALSGVLSAISAALLLANKDADTATKAAAAAELTNKVLGNIGKAITQYLIAQRAAAGLSTTGPVAGLIASVVSLAISPLSFLGIAKQFDRARMLEEYSKRFKKFGYNGDSLLGQFYKNTGIADAAITTINTVLSAIAAGVGAASAGSLVGAPIGLLVSAITSLISGILDASKQAVFEHIANQLADKIKAWENKYGKNYFENGYDARHSAFLEDSLKLFNELREKYKTENILSITQQGWDQRIGELAGITRNGDRIQSGKAYVDYLKKGEELAKHSDKFTKQILDPIKGNIDLSGIKGSTTLTFLNPLLTAGKEERKTRQSGKYEFITELKVKGRTDWKVKGVPNSNGVYDFSNLIQHAVTRDNKVLEARLIANLGAKDDYVFVGSGSTIVNAGDGYDVVDYSKGRTGALTIDGRNATKAGQYKVERDLSGTQVLQETVSKQETKRGKVTDLLEYRNYKLDYYYTNKGFKAHDELNSVEEIIGSTLRDKFYGSKFNDVFHGHDGDDLIYGYDGDDRLYGDNGNDEIHGGQGNDKLYGGAGNDRLFGEYGNNYLDGGEGDDHLEGGNGSDILRGGSGNDKLFGNQGDDLLDGGEGDDQLAGGEGNDIYVYRKEYGHHTITEHSGDKDKLSLANINLKDVSFERNGNDLLLKTNNRTAVTFKGWFSKPNSSAGLDEYQRKLLEYAPEKDRARLKRQFELQRGKVDKSLNNKVEEIIGKDGERITSQDIDNLFDKSGNKKTISPQELAGLIKNKGKSSSLMSSSRSSSMLTQKSGLSNDISRIISATSGFGSSGKALSASPLQTNNNFNSYANSLATTAA
[1]
  sensitivity to LtxA-mediated toxicity, J-β2.7/LFA-1Δ cells against J-β2.7/LFA-1 wt cells: 10 times
[2]
  50% effective dose (ED50) of LtxA against gp120-treated CD4 T cells, cell viability by cellular ATP after 20 hrs: 0.367 µg/mL
  ED50 of LtxA against mutant gp120-treated CD4 T cells, cell viability by cellular ATP after 20 hrs: 0.44 µg/mL
  ED50 of LtxA against untreated CD4 T cells, cell viability by cellular ATP after 20 hrs: 0.437 µg/mL
  IC50 of inhibition of proliferation of Jurkat cells after 72 hours (CellTiter Glo): 0.25 µg/mL
  percent of CD3+ T lymphocytes expressing high levels of LFA-1 after LtxA treatment of PBMCs (approximately 11% before), flow cytometry: 0.4%
  percent of CD4 T cells activated by surface-bound anti-CD3 and anti-CD28 killed by LtxA at 390 and 780 ng/ml: 100%
  percent of untreated CD4 T cells susceptible to LtxA at 390 and 780 ng/ml: 50%
